The source of these data is patent publication US20040143859A1 (SANKYO, published 2004).

The data set concerns the molecule itself. Nature of the data set: SDS-PAGE, reducing (60 KD) against non-reducing (120 KD). Here is the method: The two protein peaks (6 and 7) with OCIF activity were subjected to SDS-polyacrylamide gel electrophoresis under reducing and non-reducing conditions. Briefly, 20 μl of each peak fraction was concentrated under vacuum and dissolved in 1.5 μl of 10 mM Tris-HCl, pH 8, 1 mM EDTA, 2.5% SDS, 0.01% bromophenol blue, and incubated at 37° C. overnight under non-reducing conditions or under reducing conditions (with 5% of 2-mercaptoethanol). Each 1.0 μl of sample was then analyzed by SDS-polyacrylamide gel electrophoresis with a gradient gel of 10-15% acrylamide (Pharmacia Co.) and an electrophoresis-device (Fast System, Pharmacia Co.). The following molecular weight marker proteins were used to calculate molecular weight:phosphorylase b (94 kD), bovine serum albumin (67 kD), ovalbumin (43 kD), carbonic anhydrase (30 kD), trypsin inhibitor (20.0 kD), and lactalbumin (14.4 kD). After electrophoresis, protein bands were visualized by silver stain using Phast Silver Stain Kit.

B1: osteoclastogenesis inhibitory factor (OCIF), natural, purified from conditioned medium of human fibroblast IMR-90 (other)
chain: ETFPPKYLHYDEETSHQLLCDKCPPGTYLKQHCTAKWKTVCAPCPDHYYTDSWHTSDECLYCSPVCKELQYVKQECNRTHNRVCECKEGRYLEIEFCLKHRSCPPGFGVVQAGTPERNTVCKRCPDGFFSNETSSKAPCRKHTNCSVFGLLLTQKGNATHDNICSGNSESTQKCGIDVTLCEEAFFRFAVPTKFTPNWLSVLVDNLPGTKVNAESVERIKRQHSSQEQTFQLLKLWKHQNKDQDIVKKIIQDIDLCENSVQRHIGHANLTFEQLRSLMESLPGKKVGAEDIEKTIKACKPSDQILKLLSLWRIKNGDQDTLKGLMHALKHSKTYHFPKTVTQSLKKTIRFLHSFTMYKLYQKLFLEMIGNQVQSVKISCL
modifications: N-terminus blocked (the filing says the N-terminal residue may be converted to pyroglutamine); N-linked sugar chains
notes: Secreted glycoprotein found as a 60 kD monomer and a 120 kD homodimer; also called nOCIF; natural OCIF
Turning to B1, the binding result is “binds”.
